The values below come from a protein production outcome set (Wang et al. 2014).

A short description of the data set: label from the status in PepcDB records.
Regarding “MKFSYKFSNLLGTIYRNGNLVFTPDGNSVISPVGNRITVYDLKNNKSRTLSLESRYNYTNIALSPDGSLLIAVNEKGEAQLISMMSCTVIHRHKFQTGVQCICFSPNGAFFAVAVQNVVLIFCAPGEITGEYNPFVLRRRFLGGFDDVTWLDWSSDSRLLAIGCRDSSTKIVAINYTKNFRTYNLSGHTDAIVACFFEANSLHLNTISRNGQLCLWECSLAPSDLEDAERPKIAPPQRKKEKKAVSDNESEDDVENVVEKDALKEESTKEAEDVNHIKNEDETKSHPFFYKKITRHYLADEPRKEQRDVQLTAANYNTRTKVLVVAFSSGAFYLYELPDVNMIHSLSISDYPISAALFNCTGDWVALASREIGQLLVWEWQSEQYIMKQQGHSSEMTCIAYSSDGQFIATGGEDSKVKLWNTQSSFCFVTFSEHTSGVTGIQFSRNKKFLVSSSLDGTVRAFDVNRYRNFRTFTSPNPAQFSCVAVDYSGELVVAGGQDVFDIFLWSVKTGKLLEIISGHEGPVVSIAFSPVATSSTLVSGSWDKTVKIWNCLESNSEHETIDAVSDVTNVTFSPSGEEIAVATLSGNITIFDIKSAGQVTTIEGRNDLSAGRLETDIITARKNAQANYFSTIEYSADGECILAAGKSANICIYHVREAILLKKFEITQNHSLDGLNDFISRKHLSEFGNMALVEEREELEGGRVAIRLPGVQRGDMSSRRFQQEVRVFSVKFSPTGQAFAAAGTEGLCIYALDKGVVFDPFDLSLEVTPKAVHESLKQQNYTKALVMSLKLNEPNLIALVLERVPYKDVELVCADLSPEFAQRLLQQLARQLQSTPHIEFYLQWSCCLLTKHGNQDGVFQHTGLLALHEVLSRKYEMLNKICDYNKYTLKVLLDRADKLEQKNEGKPNATEEDSDEEMLLIRSKDDENGQAQFSDEEESDSGSEEEMA”, the protein production result was “failed”. The value for “MKFWRPGITGKLFLAIFATCIVLLISMHWAVRISFERGFIDYIKHGNEQRLQLLSDALGEQYAQHGNWRFLRNNDRFVFQILRSFEHDNSEDKPGPGMPPHGWRTQFWVVDQNNKVLVGPRAPIPPDGTRRPILVNGAEVGAVIASPVERLTRNTDINFDKQQRQTSWLIVALATLLAALATFLLARGLLAPVKRLVDGTHKLAAGDFTTRVTPTSEDELGKLAQDFNQLASTLEKNQQMRRDFMADISHELRTPLAVLRGELEAIQDGVRKFTPETVASLQAEVGTLTKLVDDLHQLSMSDEGALAYQKAPVDLIPLLEVAGGAFRERFASRGLKLQFSLPDSITVFGDRDRLMQLFNNLLENSLRYTDSGGSLQISAGQRDKTVRLTFADSAPGVSDDQLQKLFERFYRTEVPATVPAGSGLGLAICLNIVEAHNGRIIAAHSPFGGVSITVELPLERDLQREV” was “failed”; that for “MKFYIIRHAKVNMRWPKKCTSDEFNQACKKYDGADIVAFQGSLELPVSNIYTSELIRTKQTAQQLFPLQSYQIDKRLNEVPLKAAFSSKIKLPLIFWNILGRLQWLFNSSKQEGIKASKERAEKFCDDLIYKGEDAILITHGFFMITLLKELKKRGFIEKDNGFNFDNLQVIEVKKRLLVY” was “failed”; that for “MKGDRERQADLSPREGPSVPRPVLLQTEPRSVFPGDTSRPWSPAALPARAPGDRWCGRRRRSPGNASYLDSDISEKSRSASEEEKSHALGACHCAENAFQDSQKSLVPSRGQKMTSGTKAKVPLTALSQKWKRDREQTLEAAYVPVVVDPRGQNPDTSIRFSFYNSQYSNSLNPFYTLQKPTCGYLYQRETDHTRKRFDVPPANLILWRT” was “failed”. In the case of “MKGNALCTGEPVMTIETRGGGSEDIAVLPLDPTGNITRLFIRERCNDSSDPECKTGQWRLGSVDISRENTPASTRYAWRPGNNASEDDFEPLGMSLVPGNTPGEGTLFVIDIARPQSVRIWQLDISGGEITKATLATPADTQTGARLTAANSLQAVRNDDSRSFHLTITRFDEYGLLPFRPTPWPALVRINNGVIQPPPAQDFRNANGIIRPCAGCDLVIASYWERRLRFVSKENGEIGEYASAELPIRPDNLRLDGERILIAGQRRVDLTALNLLVSPHIPSPSGVYAIDTRSLGPDTVPTLLWEGGWKHGHSVATAVALPGNRLAIGQINTPGILIADCSPLEHHHHHH” it was “failed”.

Take “MKGSLIVIVFFCVGCIMGVFNKFQFDTHTVSMYILYALMLQVGISIGSNKNLKAIISHLHPKMLLIPLGTITGTLLFSALASILLSQWSVFDCMAVGSGFAYYSLSSILITQFKEPTIGIQLATELGTIALLTNIFREMMALLGTPLIKKYFGKLAPISAAGVNSMDVLLPSISRYSGKEMIPIAILHGILIDISVPVFVSFFCNL”: the protein production entry is reported as “failed”. The value for “MKHAKDIKVHKFNGPVKNDGKISVLVLGADKASGGKSRSDSIMVVQYDYIHKKMKMMSVMRDIYAEIPGYQNYKINAAYSLGGPELLRKTLNKNLGINPEYYAVIDFTGFEKMIDELEPNGVPMDVEKDMSENIGVSLKKGHHRLNGKELLGYARFRHDEEGDFGRVRRQQQVMQTLKKELVTPSSVIKLPKVAGILRGYINTSMPNSAIFQTGISYGIRGDKNVESLTVPINNSYQNINTNNDGSALEIDKEKNKKAVKEFLNNLEHHHHHH” was “failed”. The value for “MKHEAIGHDTIAKFLLTSGSTGNPKAVINTQRMICANQVMIREAMAFLKDEPPVIVDWLPWNHTFGGNHNIGLTLFNGGSMYIDDGKPTPAGIASTIRNLREIAPTVYFNVPKGYESLLPVLREDQQLRKLFFSRLHAMFFSGASLAAHVWNGLDEVAVAETGARVPMLTGLGATETAPFFMSVTPQTSRSGHVGLEHHHHHH” was “failed”. In the case of “MKHFDYSRGLKAPYSLQVIKSPKGKIVWYFAQPLSLAYLVMLFLGIVLTGIFWKFVPLPLIFGINLNLMIMLYFPNKVARWYTETEFEGKTGLAFLKDGFVYVKNYVLDNRSIISFERVKEIEEFSFKR” it was “failed”; in that of “MKHMKTFVIIGLSNLGIHLLEDLSRLDCQIIIIDTSKELIEEYDVISTESFVVEQFTKNALKRIIPVDTDAVVIDFDDDLGKSALVTHYCNLLGLKEICVKTENRDDAEILKTLGATKIIFPSKDAARRLTPLLVSPNLSTYNIIGYDIIVAETVIPKEYVGKTLFEADLRRECGITVIAVRNLSNSRYEFVDGDYFFLKDDKIVICGKPDSIENFTNNKDLIKDLISGSKEDENLNKDAEKKSRFLGIFNFMKIFQKDRKDN”, “failed”; in that of “MKHSLSIIFILIAAMMWGTTGTAQVFAPAEAHPIIIGASRLAVGGLALFIFVMAQRKFQLRGWPVLPTFIAALSMAAYQPFFFSAVSITGVAVGTVVAIGSAPIIAGLLDWVIQRKPPGPTWGIATILAIAGCLLLTLPGEEVTVSPVGFLLAIGAGLSFAVYTAASKKLLQQQPSEAVVAVVFSLSALFLVPLFFLYDLSWLTEFRGIIVVLHLGIVATAIAYLLFTRGLTGVASSTAVTLALAEPLTAALLGVFLVGEALSFIAWGGVLLLLLGLAVLTGFTGARTPSTRFMRNKKDKVNVE”, “failed”.

With “MKHVGDDVVAIISQDGKVIREIPLTGHKGNEQFTIKGKGAQYNLMEVDGERIRIKEDNSPDQVGVKMGWKSKAGDTIVCLPHKVFVEILEHHHHHH”, the protein production entry is “not failed”.

Take “MKIAALYDIHGNYPALKEVLKQVKKLSPDLVVLGGDLIAGPMPLETLSLLKHVSTTFKTVGIMGNNDQDIVDIYAKKRVGLSRKATEQLTWIANQLSYKQVSFLRNLLPSISIGNYFFCHAVKNDNTTVFSPQQNKAYIETLFKGVQESYIICGHTHIQFELSLPNKKIINAGSIGMPFSNQFGAQWLWLDDNRIEYKRTIFNQQAAIQLISQTEYPFKNEFLEHHHHHH”: the protein production entry was “failed”. In the case of “MKIAIFRTSGVIAPFVIDGYITGFREAGHEVWGIDLTTEGLDFTKLRSFQPDFVLAYGYNGFCKSPNGYALRELGIPLVSLHYDCPYLARNDGLSDEINNFPEYYYEFVWDDSFLELLRNDGTENCDHILLATDPTWFHPIALDSPCIESSVCFVGGVSAHVEQNCVGIELVDKFIDEVIYSKLHNMEVPTFEICKQFFSTPEYRAVHQVYTTEPASFWQMIYYKIHGKGSTVMRKYILDSIEGVDLHIYGGGNGWDKPNAIFHEKVPYGTELSKAFQQYALNLNISSLQLEKAINNRPFDAYASKAFMLNDYRDDMIRAFPAHWEEITFRNLDEFAEKGEYFLTHAQERRELVADLYDHTLRHHTYRHRADQIVEKLAAINFLNRPQQPKTQTSRSILAIDEDNYADYCKDLNTCPVCGGTEFNLKFSFLGHEDYKSTFDQCMDCQAVFLNPCPTDEYLTKFYNEIYYSPQHRQKMGWDPNLDTPNPNSFFLHQRRMDFVEKYVPEELKFPRGKLLDIGCSTGAFLWEASLRYWDVCGIEISDKAAEVAREKYGLAVTTGTLLESSFDDETFDVVTAWDVLEHIANPAPFLTILRRILKQGGLILLNTPNINSADAAYAGEQWRHLDAPLHPVLYDFISIRILLKKYGFQCLEVSSGDEYHGQMKIAARKA” it was “failed”; in that of “MKICLIDETGTGDGALSVLAARWGLEHDEDNLMALVLTPEHLELRKRDEPKLGGIFVDFVGGAMAHRRKFGGGRGEAVAKAVGIKGDYLPDVVDATAGLGRDAFVLASVGCRVRMLERNPVVAALLDDGLARGYADAEIGGWLQERLQLIHASSLTALTDITPRPQVVYLDPMFPHKQKSALVKKEMRVFQSLVGPDLDADGLLEPARLLATKRVVVKRPDYAPPLANVATPNAVVTKGHRFDIYAGTPVLEHHHHHH”, “not failed”. In the case of “MKIDKLFIKSIILTFLSMNLLFMILIMLGDLFVNLLNYLEKNIGLKDILYIYYLYLPKAFSDGVALSFLFAISNLIGNLSMRNEIIGLFSCGVPLTRILKPIILISIFISVVLFFFDNYLVIDTIARRDVLIKNSIGDSRSGDKTIIIRDFAREIYNIKSYDIDENTFANLMIIIKDNKDEFQTRYDINKAEWKDNKWRLYGIREFVKVGKKIKENAYDVLDGTGIIKLAPDYIRTVMLSSKALNFTKLINWISFLKAERLNYSDAFFDLLNRIFFSFRLILLSFTVGFIALALKKNIFILSLLNSIAFAVVYVISIVIFNFLADLGYLHIYIASSFTTIFFLIINFFVYRIVRK” it was “failed”; in that of “MKIDVVTIFPAYLDPLRQSLPGRAIASGLVDLQVHDLRRWTYDVHHSVDDSPYGGGPGMVMKAPVWGEALDEICSAETLLVVPTPAGSLFDQATAQRWSAEQHLVFACGRYEGIDQRVAEDSARRMRVEEVSIGDYVLPGGESAAVVMIEAVLRLLTGVLGNPASHQEDSFSPELDRLLEGPSYTRPPSWRGLDVPEILLSGDHARIATWRREVSLRRTRERRPDLAPPE”, “failed”; in that of “MKIHLGLVVLVFAAMIAAPRSHAADSSAPRVALVIGNSKYPDADKPLSQAVSDARELADDLKRAGFDAELGEDLSGDAMRRAFDRLYQRTKPGAAALVFFSGFGIQSGRQSYLIPADAQIWTEPDVRRDGIALETVLNELNSRGASVKIALIDASRRNPFERRFRSFSAGLAPVIAPSGSLVMYAAALSAVVTDNDSARSPFVTALREEVRAAGRSAEEAFNRARTAVTRASRGEQVPWISSSLAEDFVFTPGAKADKPAVAEPAKQPAAAAPAPAESAKPPTAPAETKPPQAAEAKPSTSRDDDKLVLALASDPTVKSLTAQIADKPSDGNAYYRRGQVYASKGAYRSAIKDFDEAIRLNGKDVEAYNNRCWVRTVIGELEPALADCDQALQLRSNFVDALDSRGLLHLKSGRDKAAIADFDAALKVNPRLTSSLYGRGLARKRIGLASEGEIDLTTAKKLDPNIGKEFAGYGVP”, “failed”. The value for “MKIIVKTLKGIRFEIEVKPNDSVAEVKKNIETVMGASEYPAAQQILIHKREKLRDETTMEANKVFDKSVIAIIITKGCLEEMEKQNPPLFQMIRHNSAGFVPVLNKESFERDNELAQPEEDLLQLQVTAVDDEAINRVLFYS” was “failed”.
